B1: chimeric protein PL-021 containing immunoglobulin-binding domain 1 of Protein L (designed binder)
chain: MAQHDEAGLALETPEPEEEVTIKANLIFADGSTQNAEFKGTFAKAVSDAYAYADALKKDNGEYTVDVADKGLTLNIKFAGALPSKSKKILKEAKKLNKAQAPKKKK
B2: chimeric protein PL-014 containing immunoglobulin-binding domain 4 of Protein L (designed binder)
chain: MAQHDEAGLALETPEEPKEEVTIKVNLIFADGKTQTAEFKGTFEEATAEAYRYADLLAKVNGEYTADLEDGGYTINIKFAGALPSKSKKILKEAKKLNKAQAPKKKK
B3: modified product PL-024 of immunoglobulin-binding domain 4 (designed binder)
chain: MAQHDEAGLALETPEEPREEVTIRVNLIFADGRTQTAEFRGTFEEATAEAYRYADLLARVNGEYTADLEDGGYTINIRFAGALPSKSKKILKEAKKLNKAQAPKKKK
B4: modified product PL-026 of immunoglobulin-binding domain 4 (designed binder)
chain: MAQHDEAGLALEKPEEPREEVTIRVNLIFADGKTQTAEFKGTFEEATAEAYRYADLLAKVNGEYTADLEDGGYTINIKFAGALPSKSKKILKEAKKLNKAQAPKKKK
B5: modified product PL-027 of immunoglobulin-binding domain 4 (designed binder)
chain: MAQHDEAGLALETPEEPREEVTIRVNLIFADGRTQTAEFKGTFEEATAEAYRYADLLAKVNGEYTADLEDGGYTINIKFAGALPSKSKKILKEAKKLNKAQAPKKKK
B6: modified product PL-028 of immunoglobulin-binding domain 4 (designed binder)
chain: MAQHDEAGLALEKPEEPKEEVTIKVNLIFADGKTQTAEFRGTFEEATAEAYRYADLLARVNGEYTADLEDGGYTINIRFAGALPSKSKKILKEAKKLNKAQAPKKKK
B7: chimeric protein PL-022 containing immunoglobulin-binding domain 2 of Protein L (designed binder)
chain: MAQHDEAGLALEKPEEPKEEVTIKVNLIFADGKTQTAEFKGTFEEATAKAYAYADLLAKENGEYTADLEDGGNTINIKFAGALPSKSKKILKEAKKLNKAQAPKKKK
B8: modified product PL-035 of immunoglobulin-binding domain 4 (designed binder)
chain: MAQHDEAGLALETPEEPREEVTIRVNLIFADGKTQTAEFKGTFEEATAEAYRYADLLAKVNGEYTADLEDGGYTINIKFAGALPSKSKKILKEAKKLNKAQAPKKKK
B9: modified product PL-036 of immunoglobulin-binding domain 4 (designed binder)
chain: MAQHDEAGLALEKPEEPREEVTIRVNLIFADGRTQTAEFKGTFEEATAEAYRYADLLAKVNGEYTADLEDGGYTINIKFAGALPSKSKKILKEAKKLNKAQAPKKKK
B10: modified product PL-038 of immunoglobulin-binding domain 4 (designed binder)
chain: MAQHDEAGLALERPEEPREEVTIRVNLIFADGRTQTAEFRGTFEEATAEAYRYADLLARVNGEYTADLEDGGYTINIRFAGALPSKSKKILKEAKKLNKAQAPKKKK
B11: modified product PL-043 of immunoglobulin-binding domain 4 (designed binder)
chain: MAQHDEAGLALERPEEPKEEVTIKVNLIFADGKTQTAEFKGTFEEATAEAYRYADLLAKVNGEYTADLEDGGYTINIKFAGALPSKSKKILKEAKKLNKAQAPKKKK
B12: modified product PL-044 of immunoglobulin-binding domain 4 (designed binder)
chain: MAQHDEAGLALEKPEEPKEEVTIKVNLIFADGRTQTAEFKGTFEEATAEAYRYADLLAKVNGEYTADLEDGGYTINIKFAGALPSKSKKILKEAKKLNKAQAPKKKK
B13: modified product PL-045 of immunoglobulin-binding domain 4 (designed binder)
chain: MAQHDEAGLALERPEEPKEEVTIKVNLIFADGRTQTAEFKGTFEEATAEAYRYADLLAKVNGEYTADLEDGGYTINIKFAGALPSKSKKILKEAKKLNKAQAPKKKK
B14: modified product PL-046 of immunoglobulin-binding domain 4 (designed binder)
chain: MAQHDEAGLALEKPEEPREEVTIKVNLIFADGRTQTAEFKGTFEEATAEAYRYADLLAKVNGEYTADLEDGGYTINIKFAGALPSKSKKILKEAKKLNKAQAPKKKK
B15: modified product PL-047 of immunoglobulin-binding domain 4 (designed binder)
chain: MAQHDEAGLALEKPEEPKEEVTIRVNLIFADGRTQTAEFKGTFEEATAEAYRYADLLAKVNGEYTADLEDGGYTINIKFAGALPSKSKKILKEAKKLNKAQAPKKKK
B16: modified product PL-048 of immunoglobulin-binding domain 4 (designed binder)
chain: MAQHDEAGLALEKPEEPKEEVTIRVNLIFADGRTQTAEFRGTFEEATAEAYRYADLLAKVNGEYTADLEDGGYTINIKFAGALPSKSKKILKEAKKLNKAQAPKKKK
B17: modified product PL-049 of immunoglobulin-binding domain 4 (designed binder)
chain: MAQHDEAGLALEKPEEPREEVTIRVNLIFADGRTQTAEFRGTFEEATAEAYRYADLLAKVNGEYTADLEDGGYTINIKFAGALPSKSKKILKEAKKLNKAQAPKKKK
B18: chimeric protein PL-023 containing immunoglobulin-binding domain 3 of Protein L (designed binder)
chain: MAQHDEAGLALETPEEPKEEVTIKVNLIFADGKIQTAEFKGTFEEATAKAYAYANLLAKENGEYTADLEDGGNTINIKFAGALPSKSKKILKEAKKLNKAQAPKKKK
B19: modified product PL-050 of immunoglobulin-binding domain 4 (designed binder)
chain: MAQHDEAGLALEKPEEPREEVTIRVNLIFADGTTQTAEFKGTFEEATAEAYRYADLLAKVNGEYTADLEDGGYTINIKFAGALPSKSKKILKEAKKLNKAQAPKKKK
B20: modified product PL-051 of immunoglobulin-binding domain 4 (designed binder)
chain: MAQHDEAGLALEKPEEPREEVTIRVNLIFADGLTQTAEFKGTFEEATAEAYRYADLLAKVNGEYTADLEDGGYTINIKFAGALPSKSKKILKEAKKLNKAQAPKKKK
B21: modified product PL-052 of immunoglobulin-binding domain 4 (designed binder)
chain: MAQHDEAGLALEKPEEPREEVTIRVNLIFADGHTQTAEFKGTFEEATAEAYRYADLLAKVNGEYTADLEDGGYTINIKFAGALPSKSKKILKEAKKLNKAQAPKKKK
B22: modified product PL-053 of immunoglobulin-binding domain 4 (designed binder)
chain: MAQHDEAGLALEKPEEPREEVTIRVNLIFADGETQTAEFKGTFEEATAEAYRYADLLAKVNGEYTADLEDGGYTINIKFAGALPSKSKKILKEAKKLNKAQAPKKKK
B23: modified product PL-054 of immunoglobulin-binding domain 4 (designed binder)
chain: MAQHDEAGLALEKPEEPREEVTIRVNLIFADGQTQTAEFKGTFEEATAEAYRYADLLAKVNGEYTADLEDGGYTINIKFAGALPSKSKKILKEAKKLNKAQAPKKKK
B24: modified product PL-055 of immunoglobulin-binding domain 4 (designed binder)
chain: MAQHDEAGLALEKPEEPREEVTIRVNLIFADGFTQTAEFKGTFEEATAEAYRYADLLAKVNGEYTADLEDGGYTINIKFAGALPSKSKKILKEAKKLNKAQAPKKKK
B25: modified product PL-056 of immunoglobulin-binding domain 4 (designed binder)
chain: MAQHDEAGLALEKPEEPREEVTIRVNLIFADGATQTAEFKGTFEEATAEAYRYADLLAKVNGEYTADLEDGGYTINIKFAGALPSKSKKILKEAKKLNKAQAPKKKK
B26: modified product PL-057 of immunoglobulin-binding domain 4 (designed binder)
chain: MAQHDEAGLALEKPEEPREEVTIRVNLIFADGKTQTAEFRGTFEEATAEAYRYADLLAKVNGEYTADLEDGGYTINIKFAGALPSKSKKILKEAKKLNKAQAPKKKK
B27: modified product PL-058 of immunoglobulin-binding domain 4 (designed binder)
chain: MAQHDEAGLALEKPEEPREEVTIKVNLIFADGRTQTAEFRGTFEEATAEAYRYADLLAKVNGEYTADLEDGGYTINIKFAGALPSKSKKILKEAKKLNKAQAPKKKK
B28: modified product PL-059 of immunoglobulin-binding domain 4 (designed binder)
chain: MAQHDEAGLALEKPEEPREEVTIKVNLIFADGKTQTAEFRGTFEEATAEAYRYADLLAKVNGEYTADLEDGGYTINIKFAGALPSKSKKILKEAKKLNKAQAPKKKK
B29: modified product PL-060 of immunoglobulin-binding domain 4 (designed binder)
chain: MAQHDEAGLALEKPEEPTEEVTIRVNLIFADGRTQTAEFKGTFEEATAEAYRYADLLAKVNGEYTADLEDGGYTINIKFAGALPSKSKKILKEAKKLNKAQAPKKKK
B30: tetrameric multidomain polypeptide PL-424 (four linked modified domains of PL-024) (designed binder)
chain: AQHDEAGLALETPEEPREEVTIRVNLIFADGRTQTAEFRGTFEEATAEAYRYADLLARVNGEYTADLEDGGYTINIRFAGALETPEEPREEVTIRVNLIFADGRTQTAEFRGTFEEATAEAYRYADLLARVNGEYTADLEDGGYTINIRFAGALETPEEPREEVTIRVNLIFADGRTQTAEFRGTFEEATAEAYRYADLLARVNGEYTADLEDGGYTINIRFAGALETPEEPREEVTIRVNLIFADGRTQTAEFRGTFEEATAEAYRYADLLARVNGEYTADLEDGGYTINIRFAGALPSKSKKILKEAKKLNKAQAPKKKK
B31: modified product PL-061 of immunoglobulin-binding domain 3 (designed binder)
chain: MAQHDEAGLALETPEEPREEVTIRVNLIFADGRIQTAEFRGTFEEATAKAYAYANLLAKENGEYTADLEDGGNTINIKFAGALPSKSKKILKEAKKLNKAQAPKKKK

Assays:
[1] = target: human IgG (available from the Chemo-Sero-Therapeutic Research Institute) (human); assay: binding capacity; binder immobilised on agarose gel, 40 mg/mL human IgG, acid elution, A280
[2] = target: human IgG (available from the Chemo-Sero-Therapeutic Research Institute) (human); assay: binding capacity; binder immobilised on agarose gel, human IgG, acid elution, A280
[3] = target: human IgG (available from the Chemo-Sero-Therapeutic Research Institute) (human); assay: binding capacity; binder immobilised on agarose gel, human IgG
[4] = target: Fab prepared by papain treatment of human IgG (human); assay: binding capacity against Capto L
[5] = target: human IgG (available from the Chemo-Sero-Therapeutic Research Institute) (human); assay: binding capacity against Capto L
[6] = target: Fab prepared by papain treatment of human IgG (human); assay: binding capacity; binder immobilised on agarose gel, 20 mg/mL human Fab, acid elution, A280

Binder	IgG Binding Capacity [2] [mg/mL gel]	also measured
B1		IgG Binding Capacity [1]: 45.3 mg/mL gel
B2	57	IgG Binding Capacity [1]: 57.4 mg/mL gel
B3	63.4	increase of binding capacity against PL-014 [3]: 11%
B4	57.8	
B5	58.6	
B6	60.1	increase of binding capacity against PL-014 [3]: 5%
B7		IgG Binding Capacity [1]: 53.3 mg/mL gel
B8	56.9	
B9	59.1	
B10	63.6	increase of binding capacity against PL-014 [3]: 11%
B11	59.3	
B12	58.9	
B13	60.6	
B14	59.7	
B15	59.2	
B16	57.9	

Binder	IgG Binding Capacity [2] [mg/mL gel]	also measured
B17	59.7	
B18	52.2	IgG Binding Capacity [1]: 52.2 mg/mL gel
B19	59	
B20	57.3	
B21	58.5	
B22	55.9	
B23	58.4	
B24	57.3	
B25	61.6	
B26	55.6	
B27	58.6	
B28	56.1	
B29	57.6	
B30	91.6	amount of bound Fab fragment relative to Capto L [4]: 2.4 times; amount of bound IgG relative to Capto L [5]: 2.2 times; human IgG binding capacity relative to PL-024 [3]: 144%; Fab Binding Capacity [6]: 72.4 mg/mL gel
B31	59.8	
